Assay results from IntAct's records for PubMed 19805280.

B1: Protein DOA1 (Saccharomyces cerevisiae), P36037 (parent)
chain: MGYQLSATLKGHDQDVRDVVAVDDSKVASVSRDGTVRLWSKDDQWLGTVVYTGQGFLNSVCYDSEKELLLFGGKDTMINGVPLFATSGEDPLYTLIGHQGNVCSLSFQDGVVISGSWDKTAKVWKEGSLVYNLQAHNASVWDAKVVSFSENKFLTASADKTIKLWQNDKVIKTFSGIHNDVVRHLAVVDDGHFISCSNDGLIKLVDMHTGDVLRTYEGHESFVYCIKLLPNGDIVSCGEDRTVRIWSKENGSLKQVITLPAISIWSVDCMSNGDIIVGSSDNLVRIFSQEKSRWASEDEINELSTQVEKSTISSKTIEFDESKLSPYEILQSPGRKEGQIVVVKSPQGTIEAHQFSNSSWKKVGDVVGAGATGNDKKIEFEGKTYDYVFDVDIEDGKPPLKLPINVSDNPYTAADNFLARYELPMSYRDQVVQFILKNTNGISLDQPNDNASSSAVSPSKTSVMKVLPVKQYLIMENYNPDTIFNGIVKINSNEKTFDDEILAQIGGALHDIDESWELLLSFANTIRSNWEIKTPAYDIVRLIVKKLPYSSDIKDYIEEGLGNKNITLTMLTVRILVNCFNNENWGVKLLESNQVYKSIFETIDTEFSQASAKQSQNLAIAVSTLIFNYSALVTKGNSDLELLPIVADAINTKYGPLEEYQECEEAAYRLTVAYGNLATVEPTLRQFANSVTWLANIKRSYGNVPRFKDIFDDLS

Variants of: B1
Conditions: with cdc48_yeast CDC48, P25694
Sequence of cdc48_yeast CDC48, P25694 (P25694 whole entry): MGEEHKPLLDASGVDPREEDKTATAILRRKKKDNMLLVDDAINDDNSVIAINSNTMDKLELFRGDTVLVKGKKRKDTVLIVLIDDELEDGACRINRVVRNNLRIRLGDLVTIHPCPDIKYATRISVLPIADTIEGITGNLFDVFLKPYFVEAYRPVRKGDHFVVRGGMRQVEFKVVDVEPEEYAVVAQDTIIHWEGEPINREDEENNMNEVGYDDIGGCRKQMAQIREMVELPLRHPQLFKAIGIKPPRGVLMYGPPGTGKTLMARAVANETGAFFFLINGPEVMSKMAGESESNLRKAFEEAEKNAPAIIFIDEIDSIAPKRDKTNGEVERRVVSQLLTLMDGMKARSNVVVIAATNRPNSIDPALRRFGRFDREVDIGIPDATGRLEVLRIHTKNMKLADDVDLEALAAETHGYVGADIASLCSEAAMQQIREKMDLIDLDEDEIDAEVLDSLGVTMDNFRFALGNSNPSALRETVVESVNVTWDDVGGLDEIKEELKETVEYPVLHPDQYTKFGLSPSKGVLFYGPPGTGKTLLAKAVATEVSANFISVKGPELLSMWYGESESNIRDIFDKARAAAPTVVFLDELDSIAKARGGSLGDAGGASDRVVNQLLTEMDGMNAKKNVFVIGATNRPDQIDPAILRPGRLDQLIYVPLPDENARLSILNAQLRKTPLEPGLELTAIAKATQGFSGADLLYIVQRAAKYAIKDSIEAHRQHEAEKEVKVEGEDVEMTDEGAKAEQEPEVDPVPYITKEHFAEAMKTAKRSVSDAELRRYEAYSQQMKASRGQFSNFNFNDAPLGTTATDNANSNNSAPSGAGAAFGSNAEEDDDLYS

effect of a mutation on the interaction | Variant
decreasing interaction | R669A
decreasing interaction | N578A
disrupting interaction | R541A

Variants of: B1
Conditions: with cdc48_yeast CDC48, P25694
Remark: another data set of the same source

effect of a mutation on the interaction | Variant
disrupting interaction | R541A;R669A
